The experiment deals with Wild-type CFTR (cystic fibrosis transmembrane conductance regulator) N-terminally labelled with GFP or RFP (UniProt P13569). The experiment can be described thus: FRET or BRET; acceptor-photobleaching FRET between GFP-CFTR (donor) and RFP-CFTR (acceptor) in fixed HEK293T cells, measured intracellularly, basal conditions (air exposure).

Consider “Wild-type CFTR (cystic fibrosis transmembrane conductance regulator) N-terminally labelled with GFP or RFP (from UniProt P13569 1-1480) (natural protein)”, for which the FRET efficiency (%E) was determined as 0%.

The values are drawn from PMC6754399.
